Five molecules from article PMC4686829 (Nature Communications, 2015) can be followed below.

The target in experiment [1] is globular head of H5 HA, HA1 fragment between residue D55 and E271 (F55–271) of A/Anhui/1/2005 (Influenza A virus A/Anhui/1/2005 (H5N1)). In words: crystal structure. As to conditions: both partners purified.
Experiment [2] has as its target HA fragment between residues I60 and G263 (F60–263) of A/Anhui/1/05, displayed on yeast (Influenza A virus A/Anhui/1/2005 (H5N1), strain). Description: flow cytometry on cells. As to conditions: one partner purified. On the technique in general: In flow cytometry, cells or beads pass a laser one at a time.

B1: 65C6 Fab (Fab, V domains shown)
VH: EVQLVQSGAEVKKPGESLRISCKGFAYSSTYFWISWVRQMPGKGLEWMGRIDPTDSYINYSPSFQGHVTISVDRSISTVYLQWSSLKASDTAMYYCAYHRRGHFYGSGSAWDWFESWGQGTLVTVSS
VL: EIVLTQSPLTLSVSPGERATLSCRASQSVSSNLAWYQQMPGQAPRLLIYGASTRATGIPARLSGSASGTEFTLTISSLQSEDFAVYYCQQYNNWPYTFGQGTKLEIK
For B1, in experiment [1], the binding result is “binds”.

B2: 65C6, full-length human IgG1 (antibody, V domains shown)
VH: EVQLVQSGAEVKKPGESLRISCKGFAYSSTYFWISWVRQMPGKGLEWMGRIDPTDSYINYSPSFQGHVTISVDRSISTVYLQWSSLKASDTAMYYCAYHRRGHFYGSGSAWDWFESWGQGTLVTVSS
VL: EIVLTQSPLTLSVSPGERATLSCRASQSVSSNLAWYQQMPGQAPRLLIYGASTRATGIPARLSGSASGTEFTLTISSLQSEDFAVYYCQQYNNWPYTFGQGTKLEIK
notes: IgG1; source: 293 T cells, transient transfection, purified (Protein A agarose)
With B2, in experiment [2], the binding result was “binds”.

B3: AVFluIgG03 Fab (Fab, V domains shown)
VH: EVQLLESGGGLVQPGGSLRVSCTNSGFTFSNYAMSWVRQAPGKGLEWVSAISGNGGSGTYYADSVKGRFTISRDNSKNTMYLQMNSLRAEDTAVYYCVRDDSYDGGGHYGLHNWFDSWGQGTLVTVSS
VL: SVLTQPPSVSGAPGQRVTISCTGSSSNIGAGYDVHWYQQLPGTAPKLLIYGNSNRPSGVPDRFSGSKSGTSASLAITGLQAEDEADYYCQSYDSSVVVFGGGTKLEIK
notes: also called Fab of AVFluIgG03; AVFulgG03
As for B3, the binding result in experiment [1] is reported as “binds”.

B4: AVFluIgG03, full-length human IgG1 (antibody, V domains shown)
VH: EVQLLESGGGLVQPGGSLRVSCTNSGFTFSNYAMSWVRQAPGKGLEWVSAISGNGGSGTYYADSVKGRFTISRDNSKNTMYLQMNSLRAEDTAVYYCVRDDSYDGGGHYGLHNWFDSWGQGTLVTVSS
VL: SVLTQPPSVSGAPGQRVTISCTGSSSNIGAGYDVHWYQQLPGTAPKLLIYGNSNRPSGVPDRFSGSKSGTSASLAITGLQAEDEADYYCQSYDSSVVVFGGGTKLEIK
notes: IgG1; also called AVFulgG03; AVFluIg03; source: 293 T cells, transient transfection, purified (Protein A agarose)
B4: the binding result in experiment [2] is recorded as “binds”.

B5: 100F4, full-length human IgG1 (antibody, V domains shown)
VH: QLQLQESGLGLVKPSETLSLTCTVSGDSVSSGSYYWSWLRQPPGKGLEWIGNMHGSGHTNYNPSLKSRVTITPDTSKNHFSLRLSSVTAADTAVYYCARALLTTVTTFEYWGQGTLVTVSS
VL: QSALTQPPSVSGAPGQRVTIPCTGGSSNIGAGYSVHWYQQLPGTAPKLLIYGSNSRPSGVPDRFSGSKSGTSASLAITGLRPEDEADYYCQSYDSSLSGSQVFGAGTRVTVL
notes: as for B2
B5: the binding result in experiment [2] is reported as “binds”.
